From US7838231 (REGENTS OF THE UNIVERSITY OF MICHIGAN, dated 2010)

T1: full-length human nephrocystin-5 (NPHP5), yeast two-hybrid fusion (human, UniProt Q15051 1-598)
T1 construct: Full-length NPHP5 cDNA (598 amino acid residues) fused to a GAL4 domain; also called KIAA0036
T1 sequence: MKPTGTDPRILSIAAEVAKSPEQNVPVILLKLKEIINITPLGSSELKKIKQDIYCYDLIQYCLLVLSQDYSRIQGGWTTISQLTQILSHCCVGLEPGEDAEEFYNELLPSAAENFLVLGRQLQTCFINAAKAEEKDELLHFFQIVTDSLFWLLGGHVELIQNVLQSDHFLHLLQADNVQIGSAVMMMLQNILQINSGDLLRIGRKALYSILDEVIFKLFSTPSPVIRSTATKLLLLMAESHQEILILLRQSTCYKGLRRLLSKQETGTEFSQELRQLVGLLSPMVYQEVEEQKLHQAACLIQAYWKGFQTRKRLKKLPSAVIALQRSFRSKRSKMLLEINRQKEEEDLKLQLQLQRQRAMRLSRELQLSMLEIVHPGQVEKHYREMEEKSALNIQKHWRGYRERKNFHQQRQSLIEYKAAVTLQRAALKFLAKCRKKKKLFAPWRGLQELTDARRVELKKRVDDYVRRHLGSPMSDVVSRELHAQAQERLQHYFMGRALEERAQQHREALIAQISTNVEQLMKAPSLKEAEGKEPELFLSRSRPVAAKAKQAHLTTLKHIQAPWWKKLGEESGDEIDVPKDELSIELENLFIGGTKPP

B1: BBS1, human full length, yeast two-hybrid prey (other, UniProt Q8NFJ9 1-593, looked up, not shown: large carriers)
chain: MAAASSSDSDACGAESNEANSKWLDAHYDPMANIHTFSACLALADLHGDGEYKLVVGDLGPGGQQPRLKVLKGPLVMTESPLPALPAAAATFLMEQHEPRTPALALASGPCVYVYKNLRPYFKFSLPQLPPNPLEQDLWNQAKEDRIDPLTLKEMLESIRETAEEPLSIQSLRFLQLELSEMEAFVNQHKSNSIKRQTVITTMTTLKKNLADEDAVSCLVLGTENKELLVLDPEAFTILAKMSLPSVPVFLEVSGQFDVEFRLAAACRNGNIYILRRDSKHPKYCIELSAQPVGLIRVHKVLVVGSTQDSLHGFTHKGKKLWTVQMPAAILTMNLLEQHSRGLQAVMAGLANGEVRIYRDKALLNVIHTPDAVTSLCFGRYGREDNTLIMTTRGGGLIIKILKRTAVFVEGGSEVGPPPAQAMKLNVPRKTRLYVDQTLREREAGTAMHRAFQTDLYLLRLRAARAYLQALESSLSPLSTTAREPLKLHAVVQGLGPTFKLTLHLQNTSTTRPVLGLLVCFLYNEALYSLPRAFFKVPLLVPGLNYPLETFVESLSNKGISDIIKVLVLREGQSAPLLSAHVNMPGSEGLAAA
B2: BBS4, human full length, yeast two-hybrid prey (other, UniProt Q96RK4 1-519, looked up, not shown: large carriers)
chain: MAEERVATRTQFPVSTESQKPRQKKAPEFPILEKQNWLIHLHYIRKDYEACKAVIKEQLQETQGLCEYAIYVQALIFRLEGNIQESLELFQTCAVLSPQSADNLKQVARSLFLLGKHKAAIEVYNEAAKLNQKDWEISHNLGVCYIYLKQFNKAQDQLHNALNLNRHDLTYIMLGKIHLLEGDLDKAIEVYKKAVEFSPENTELLTTLGLLYLQLGIYQKAFEHLGNALTYDPTNYKAILAAGSMMQTHGDFDVALTKYRVVACAVPESPPLWNNIGMCFFGKKKYVAAISCLKRANYLAPFDWKILYNLGLVHLTMQQYASAFHFLSAAINFQPKMGELYMLLAVALTNLEDIENAKRAYAEAVHLDKCNPLVNLNYAVLLYNQGEKKNALAQYQEMEKKVSLLKDNSSLEFDSEMVEMAQKLGAALQVGEALVWTKPVKDPKSKHQTTSTSKPASFQQPLGSNQALGQAMSSAAAYRTLPSGAGGTSQFTKPPSLPLEPEPAVESSPTETSEQIREK
B3: BBS5, human full length, yeast two-hybrid prey (other, UniProt Q8N3I7 1-341, looked up, not shown: large carriers)
chain: MSVLDALWEDRDVRFDLSAQQMKTRPGEVLIDCLDSIEDTKGNNGDRGRLLVTNLRILWHSLALSRVNVSVGYNCILNITTRTANSKLRGQTEALYILTKCNSTRFEFIFTNLVPGSPRLFTSVMAVHRAYETSKMYRDFKLRSALIQNKQLRLLPQEHVYDKINGVWNLSSDQGNLGTFFITNVRIVWHANMNDSFNVSIPYLQIRSIKIRDSKFGLALVIESSQQSGGYVLGFKIDPVEKLQESVKEINSLHKVYSASPIFGVDYEMEEKPQPLEALTVEQIQDDVEIDSDGHTDAFVAYFADGNKQQDREPVFSEELGLAIEKLKDGFTLQGLWEVMS
B4: BBS6, human full length, yeast two-hybrid prey (other, UniProt Q9NPJ1 1-570, looked up, not shown: large carriers)
chain: MSRLEAKKPSLCKSEPLTTERVRTTLSVLKRIVTSCYGPSGRLKQLHNGFGGYVCTTSQSSALLSHLLVTHPILKILTASIQNHVSSFSDCGLFTAILCCNLIENVQRLGLTPTTVIRLNKHLLSLCISYLKSETCGCRIPVDFSSTQILLCLVRSILTSKPACMLTRKETEHVSALILRAFLLTIPENAEGHIILGKSLIVPLKGQRVIDSTVLPGILIEMSEVQLMRLLPIKKSTALKVALFCTTLSGDTSDTGEGTVVVSYGVSLENAVLDQLLNLGRQLISDHVDLVLCQKVIHPSLKQFLNMHRIIAIDRIGVTLMEPLTKMTGTQPIGSLGSICPNSYGSVKDVCTAKFGSKHFFHLIPNEATICSLLLCNRNDTAWDELKLTCQTALHVLQLTLKEPWALLGGGCTETHLAAYIRHKTHNDPESILKDDECTQTELQLIAEAFCSALESVVGSLEHDGGEILTDMKYGHLWSVQADSPCVANWPDLLSQCGCGLYNSQEELNWSFLRSTRRPFVPQSCLPHEAVGSASNLTLDCLTAKLSGLQVAVETANLILDLSYVIEDKN
B5: BBS8, human full length, yeast two-hybrid prey (other, UniProt Q8TAM2 1-541, looked up, not shown: large carriers)
chain: MSSEMEPLLLAWSYFRRRKFQLCADLCTQMLEKSPYDQEPDPELPVHQAAWILKARALTEMVYIDEIDVDQEGIAEMMLDENAIAQVPRPGTSLKLPGTNQTGGPSQAVRPITQAGRPITGFLRPSTQSGRPGTMEQAIRTPRTAYTARPITSSSGRFVRLGTASMLTSPDGPFINLSRLNLTKYSQKPKLAKALFEYIFHHENDVKTIHLEDVVLHLGIYPFLLRNKNHIEKNALDLAALSTEHSQYKDWWWKVQIGKCYYRLGMYREAEKQFKSALKQQEMVDTFLYLAKVYVSLDQPVTALNLFKQGLDKFPGEVTLLCGIARIYEEMNNMSSAAEYYKEVLKQDNTHVEAIACIGSNHFYSDQPEIALRFYRRLLQMGIYNGQLFNNLGLCCFYAQQYDMTLTSFERALSLAENEEEAADVWYNLGHVAVGIGDTNLAHQCFRLALVNNNNHAEAYNNLAVLEMRKGHVEQARALLQTASSLAPHMYEPHFNFATISDKIGDLQRSYVAAQKSEAAFPDHVDTQHLIKQLRQHFAML

target: T1, full-length human nephrocystin-5 …; test: direct yeast two-hybrid assay

Binding result, no binding:
B1
B2
B3
B4
B5
